Patent US8124087B2, “Methods of controlling bone loss by inhibiting DKK1” (Board of Trustees of the University of Arkansas, priority 2002, dated 2012)

What was measured:
[1] = system: multiple myeloma plasma cells; test: Gene expression profiling of plasma cells before and after 48 hour in vivo drug treatment; set-up: species or system human; conditions: 48 hour in vivo treatment of patients
Description: Following Ficoll-Hypaque gradient centrifugation, plasma cells obtained from the bone marrow were isolated from the mononuclear cell fraction by immunomagnetic bead selection using a monoclonal mouse anti-human CD138 antibody (Miltenyi-Biotec, Auburn, Calif.). More than 90 percent of the cells used for gene expression profiling were plasma cells, as shown by two-color flow cytometry using CD138^+/CD45^− and CD38^+/ CD45^− markers, the presence of cytoplasmic immunoglobulin light chains by immunocytochemistry, and morphology by Wright-Giemsa staining. Total RNA was isolated with RNeasy Mini Kit (Qiagen, Valencia, Calif.). Preparation of labeled cRNA and hybridization to U95Av2 microarrays containing approximately 10,000 genes (Affymetrix, Santa Clara, Calif.) was performed as previously described (Zhan et al., 2002; Zhan et al., 2003). RNA amplification was not required.
To see if multiple myeloma plasma cells also upregulate the genes in response to drugs used to treat this disease, gene expression profiling of multiple myeloma plasma cells was performed before and after 48 hour in vivo treatment with thalidomide (FIG. 33), ImiD (FIG. 34), PS-341 (FIG. 32), or dexamethasone (FIG. 35). […] In support of this notion, […] and FRZB were expressed at low to undetectable levels in 30 HMCL and several cases of extramedullary disease (FIG. 15).

C2C12 cells [2] = test: OPG mRNA (qPCR) and protein (ELISA) in osteoblast cells; type: cell-based, mouse
Experimental: (§1) C2C12 cells were cultured in 6-well plates in DMEM with 10% FBS and maintained at subconfluence. MM cells (5×10^5/ml) were seeded on the C2C12 in the presence or absence of Wnt3a-CM or Cont-CM for indicated times. For coculture with primary cells, CD138 positive cells were cultured on of the C2C12 monolayer […] in the presence or absence of rWnt3a with and without anti-DKK1 antibody (R&D System) for 48 hours. Total RNA was isolated using TRIZOL reagent (Invitrogen). Supernatants were harvested for protein analysis.
(§2) Microtiter plates were coated with 50 μl of anti-DKK1 antibody (R&D Systems, Minneapolis, Minn.) according to manufacturer recommendations. Bone marrow serum (1:50) in dilution buffer was added and incubated overnight at 4° C. Plates were washed and incubated with biotinylated goat anti-human DKK1 IgG (R&D Systems, Minneapolis, Minn.) followed by streptavidin-horseradish peroxidase (Vector Laboratories), according to manufacturer recommendations. The concentrations of OPG and RANKL proteins in cultured supernatant were measured using the kits from according to manufacturer recommendations (R&D Systems, Minneapolis, Minn.).
(§3) One microgram of total RNA was reverse transcribed into total cDNA. Quantitative PCR (qPCR) was performed using an ABI Prism 7000 sequence detection system (Applied Biosystems, Foster City, Calif.). The reaction mixture contained 1 ml of cDNA, dedicated buffers with specific primers and probes (5′-labeled by 6-carboxy-fluorescein and 3′-labeled by 1-carboxy-teteramethyrhdamine), and DNA polymerase in a total 20 ml volume. […] Each cDNA sample was analyzed in triplicate in parallel with GAPDH as a control. Changes in mRNA concentration were determined by subtracting the CT (threshold cycle) of target gene from the CT of GAPDH (Δ=CT gene−CT GAPDH). The mean of Δ control was subtracted from the ΔSiLRP5/6 reaction (mean Δ control−ASiLRP5/6=e) The difference was calculated as 2^e by the ^2-ΔΔCT (Livak and Schmittgen, 2001).

Saos-2 cells [3] = test: as above; type: cell-based, human
Experimental: as §2
as §3, with “Calif.).” for “Calif.). The reaction mixture contained 1 ml of cDNA, dedicated buffers with specific primers and probes (5′-labeled by 6-carboxy-fluorescein and 3′-labeled by 1-carboxy-teteramethyrhdamine), and DNA polymerase in a total 20 ml volume.”, “2001). […]” for “2001).”

MG63 cells = test: OPG mRNA (qPCR) in osteoblast cells; type: cell-based, human; conditions: data not shown
Experimental: One microgram of total RNA was reverse transcribed into total cDNA. Quantitative PCR (qPCR) was performed using an ABI Prism 7000 sequence detection system (Applied Biosystems, Foster City, Calif.). The reaction mixture contained […], dedicated buffers with specific primers and probes (5′-labeled by 6-carboxy-fluorescein and 3′-labeled by 1-carboxy-teteramethyrhdamine), and DNA polymerase in a total […]. Following 2 min incubation at 50° C. and 10 min incubation at 95° C. for denaturing, the reaction was subjected to 40-cycle amplification at 95° C. for 15 s to denature and at 60° C. for 1 min for annealing/extension. Each cDNA sample was analyzed in triplicate in parallel with GAPDH as a control. Changes in mRNA concentration were determined by subtracting the CT (threshold cycle) of target gene from the CT of GAPDH (Δ=CT gene−CT GAPDH). The mean of Δ control was subtracted from the ΔSiLRP5/6 reaction (mean Δ control−ASiLRP5/6=e) The difference was calculated as 2^e by the ^2-ΔΔCT (Livak and Schmittgen, 2001).

C2C12 cells [4] = test: RANKL mRNA (qPCR) in osteoblast cells; type: cell-based, mouse; conditions: 48 hours
Experimental: as §1, §3

C2C12 cells [5] = test: Alkaline phosphatase (ALP) assay, BMP-2-induced differentiation; type: cell-based, mouse; conditions: 72 hrs
Experimental: ALP activity was measured using ALP kit (Diagnostic Chemical Limited, Exton, Pa.) according to manufacturer instructions. Absorbance The of samples was determined with a Spectra Max340 Microplate Spectrophotometer (Molecular Devices, Sunnyvale, Calif.) at 402 nm. Cell lysates were analyzed for protein content with using the micro-BCA assay kit (Pierce, Rockford, Ill.).
Chemical synthesis of siRNA specific to LRP5/6, GFP, and control siRNA were purchased from Qiagen (Valencia, Calif.). The siRNA were transiently transfected into C2C12 using Lipofectamine according to manufacturer instructions (Invitrogen). RNA was isolated after 24, 48 or 72 hours then subjected to RT-PCR or qPCR for determination of efficacy of target gene silencing.

Saos-2 cells [6] = test: GST-E-cadherin binding assay / immunoblot of uncomplexed b-catenin; type: cell-based, human
Experimental: (§4) Cells were incubated in MEM, Wnt3a CM, control CM, or with recombinant Wnt3a for indicated times. For inhibition studies, cells were pretreated with purified recombinant Dkk1 at indicated concentrations or Dkk1 CM, Dkk2 CM, or bone marrow plasma with low or high concentrations of Dkk1 protein for one hour. Following treatment, cells were lysed as described (Qiang et al., 2002). Cell lysates were separated by SDS-PAGE and transferred to Immobilon polyvinylidene difluoride membranes (Millipore, Bedford, Mass.). Immunoblotting was performed using the indicated antibodies.
(§5) The GST-E-cadherin binding assay was performed as described (Bafico et al., 1998). Briefly, the beta-catenin binding site of E-cadherin as a GST-fusion protein was purified using GST beads. GST-E-cadherin was used to precipitate uncomplexed b-catenin present in 500 ng of cell lysate. Precipitated b-catenin was detected by immunoblotting using a b-catenin monoclonal antibody. Non-phosphorylated b-catenin was detected with a monoclonal antibody specific for b-catenin dephosphorylated at residues of 27-37 (Alexis, San Diego, Calif.).
The GST-E-cadherin binding assay was performed as described (Bafico et al., 1998). […] Precipitated beta-catenin was detected by immunoblotting analysis using a b-catenin monoclonal antibody (Qiang et al., 2005).

hFOB 1.19 cells = test: as above; type: cell-based, human; conditions: lowest concentration tested (5 ng/ml)
Experimental: as §4, §5

C2C12 cells [7] = test: as above; type: cell-based, mouse
Experimental: Cells were incubated in MEM, Wnt3a CM, control CM, or with recombinant Wnt3a for indicated times. For inhibition studies, cells were pretreated with purified recombinant Dkk1 at indicated concentrations or Dkk1 CM, Dkk2 CM, or bone marrow plasma with low or high concentrations of Dkk1 protein for one hour. […] Cell lysates were separated by SDS-PAGE and transferred to Immobilon polyvinylidene difluoride membranes (Millipore, Bedford, Mass.). Immunoblotting was performed using the indicated antibodies.
The beta-catenin binding site of E-cadherin as a GST-fusion protein was purified using GST beads. GST-E-cadherin was used to precipitate uncomplexed beta-catenin in 500 mg of cell lysate. Precipitated beta-catenin was detected by immunoblotting analysis using a b-catenin monoclonal antibody (Qiang et al., 2005).

C2C12 cells [8] = test: Osteoblast differentiation assay (alkaline phosphatase), 5 days; type: cell-based, mouse; conditions: 50 ng/ml BMP-2 + 50 ng/ml recombinant human DKK1, 5 days
Experimental: C2C12 mesenchymal precursor cells (American Type Tissue Culture, Reston, Va.) were cultured in DMEM (Invitrogen, Carlsbad, Calif.) supplemented with 10 percent heat-inactivated fetal calf serum. Alkaline phosphatase activity in C2C12 cells was measured as described (Gallea, et al., 2001; Spinella-Jaegle, et al., 2001). Cell lysates were analyzed for protein content using the micro-BCA assay kit (Pierce, Rockford, Ill.).

C2C12 cells [9] = test: TOPflash LEF/TCF luciferase reporter gene assay; type: cell-based; conditions: mouse pre-osteoblasts
Experimental: Cells plated at 5×10^4 per well in a 12-well plate were transiently co-transfected with […] of either TOPflash, FOPflash (Korinek et al., 1997), or Cbfa-1-luc (kindly provided by Dr. Ying Zhang, NCI, NIH) and 50 ng of pSV-b-galactosidase vector to normalize for transfection efficiency using Lipofectamine according to manufacturer instructions (Invitrogen). Following transfection, cells were exposed to Wnt3a CM or control CM for 24 hr prior to luciferase assay. Luciferase activity was measured as previously described (Qiang et al., 2003).

[10] = dose- and time-dependent, maximum reached

CC(C)C[C@H](NC(=O)[C@H](Cc1ccccc1)NC(=O)c1cnccn1)B(O)O [PS-341]
DKK-1 and FRZB expression after drug treatment [1]: massively upregulated in many cases

O=C1CCC(N2C(=O)c3ccccc3C2=O)C(=O)N1 (stereo not shown) [thalidomide]
DKK-1 and FRZB expression after drug treatment [1]: massively upregulated in many cases

B1: Wnt3a: recombinant Wnt3a (R&D Systems), canonical Wnt ligand (protein, UniProt P56704 19-352, looked up)
Protein Wnt-3a: SYPIWWSLAVGPQYSSLGSQPILCASIPGLVPKQLRFCRNYVEIMPSVAEGIKIGIQECQHQFRGRRWNCTTVHDSLAIFGPVLDKATRESAFVHAIASAGVAFAVTRSCAEGTAAICGCSSRHQGSPGKGWKWGGCSEDIEFGGMVSREFADARENRPDARSAMNRHNNEAGRQAIASHMHLKCKCHGLSGSCEVKTCWWSQPDFRAIGDFLKDKYDSASEMVVEKHRESRGWVETLRPRYTYFKVPTERDLVYYEASPNFCEPNPETGSFGTRDRTCNVSSHGIDGCDLLCCGRGHNARAERRREKCRCVFHWCCYVSCQECTRVYDVHTCK
increase of OPG protein relative to controls (ELISA of supernatants) (C2C12 cells [2]): 2000 fold
increase of OPG mRNA (C2C12 cells [2]; [10]): 40 fold
increase of OPG protein relative to controls (ELISA of supernatants) (Saos-2 cells [3]): 4 fold
increase of OPG mRNA (Saos-2 cells [3]; [10]): 2 fold
increase of OPG mRNA (MG63 cells): 1.5 fold
RANKL mRNA after Wnt3a (C2C12 cells [4]): significant decrease in RANKL mRNA
ALP activity, factor alone (C2C12 cells [5]; DMEM with 2% horse serum): no effect

B2: recombinant human DKK1: recombinant Dickkopf-1 protein, soluble inhibitor of Wnt signaling (protein)
chain: TLNSVLNSNAIKNLPPPLGGAAGHPGSAVSAAPGILYPGGNKYQTIDNYQPYPCAEDEECGTDEYCASPTRGGDAGVQICLACRKRRKRCMRHAMCCPGNYCKNGICVSSDQNHFRGEIEETITESFGNDHSTLDGYSRRTTLSSKMYHTKGQEGSVCLRSSDCASGLCCARHFWSKICKPVLKEGQVCTKHRRKGSHGLEIFQRCYCGEGLSCRIQKDHHQASNSSRLHTCQRH
inhibition of Wnt3a-increased non-phosphorylated b-catenin (Saos-2 cells [6]; lowest concentration tested (5 ng/ml)): pronounced inhibition
b-catenin level (pull-down assay) (Saos-2 cells [6]; recombinant DKK1 before Wnt3a): reduced
Wnt3a-induced increase in OPG mRNA in presence of DKK1 (C2C12 cells [2]; 100 ng/ml of DKK1 in culture media): significantly inhibited
inhibition of Wnt3a-increased non-phosphorylated b-catenin (hFOB 1.19 cells): pronounced inhibition
concentration of maximal inhibition of Wnt3a-increased non-phosphorylated b-catenin (C2C12 cells [7]; pretreatment before Wnt3a): 50 ng/mL
b-catenin level (pull-down assay) (C2C12 cells [7]; recombinant DKK1 before Wnt3a): reduced
RANKL mRNA decreased by Wnt3a, after DKK1 pretreatment (C2C12 cells [4]; 100 ng/ml DKK1 pretreatment): restored
alkaline phosphatase production with BMP-2 plus DKK1 (C2C12 cells [8]): not produced
BMP-2-induced ALP activity after Dkk1 pretreatment (C2C12 cells [5]; 100 ng/ml Dkk1, presence or absence of Wnt3a): significantly inhibited ALP activity
Wnt3a-induced TCF/LEF transcriptional activity in presence of Dkk1 (C2C12 cells [9]): completely attenuates
